Measured values published in patent US20220064224A1 (NOVOBIND LIVESTOCK THERAPEUTICS, published 2022).
Residue numbers refer to the chain shown, from its start.

Molecular target: Canine Parvovirus Type 2 (CPV2) (Canine parvovirus type 2)
Assay: cell-based or functional assay

B1: NBX0428 (VHH)
VHH: QVQLQESGGGLVQAGGSLRLSCAASGSTSSINHIAWYRQAPGKQREWVATITSGGGSTYYTNSVKGRFTISRDNAKNTVYLQMNNLKPEDTAVYYCKANQAAGNKDYWGQGTQVTVSS
Invasion reduced by >50% at 5 µM NBX: > 50%

B2: NBX0415 (VHH)
VHH: QVQLQESGGGLVQAGGSLRLSCAASGRTFSSYAMGWFRQAPGKEREYVAAINRFGGTYYADFVKGRFTISRDNAKNTVYLQMNSLKPEDTAVYYCAASRILGLTTAREDYNYWGQGTQVTVSS
Invasion reduced by >50% at 5 µM NBX: ≤ 50%

B3: NBX0431 (VHH)
VHH: B2 VHH with E6Q, A50G, T104S
Invasion reduced by >50% at 5 µM NBX: ≤ 50%

B4: NBX0412 (VHH)
VHH: B2 VHH with A24V, G55S, T104S
Invasion reduced by >50% at 5 µM NBX: ≤ 50%

B5: NBX0429 (VHH)
VHH: B2 VHH with E6Q, R99G, T104S
Invasion reduced by >50% at 5 µM NBX: ≤ 50%

B6: NBX0430 (VHH)
VHH: QVQLQQSGGGLVQAGGSLRLSCAASGLTFGSPAMAWYRQAPGKEREWVATISRGGSTYYADSVKGRFTISRDNAKNTSYLQMNSLKPEETAVYYCAAGLSSMRYDYWGQGTQVTVSS
Invasion reduced by >50% at 5 µM NBX: ≤ 50%

B7: NBX0414 (VHH)
VHH: QVQLQESGGGLVQAGGSLRLSCRASGRTFSSSSMGWFRQAPGKERDFVAAISWDGASTRYADSVKGRFTISRDNAKNTVYLQMNSLKPEDTAVYYCAASTMDFIVLLTKWYPYWGQGTQVTVSS
Invasion reduced by >50% at 5 µM NBX: > 50%

B8: NBX0416 (VHH)
VHH: B7 VHH with R23A, S52N, D54S, A56D, N77S
Invasion reduced by >50% at 5 µM NBX: ≤ 50%

B9: NBX0417 (VHH)
VHH: QVQLQESGGGLVQPGGSLRLSCAASGSIFSINVMAWYRQAPGKEREYVASITRGGGDYYANSVKGRFTISRDNAKNAVYLQMNSLKPEDTAVYECNAQISQTISGDYRNYWGQGTQVTVSS
Invasion reduced by >50% at 5 µM NBX: ≤ 50%

B10: NBX0426 (VHH)
VHH: QVQLQESGGGLVQPGGSLRLSCAASGIGDRPYVMAWHRQAPGKQRELVATITRDGYTNYADTVKGRFVVSRDNAQNTVYLQMNYLKPADTAVYYCRAYNAYLNLGYWGQGTQVTVST
Invasion reduced by >50% at 5 µM NBX: > 50%

B11: NBX0411 (VHH)
VHH: QVQLQESGGGLVQPGGSLRLSCAVSGLAFGRVAMAWYRQAPGKERELVARISSGGYTNYADSAKGRFTISRDNVKNLVYLQMNSLKFDDTAVYYCNSGWSGDYWGKGTLVTVSS
Invasion reduced by >50% at 5 µM NBX: > 50%

B12: NBX0421 (VHH)
VHH: B11 VHH with E6Q, V32Y, S53N, L77T, Q81E, D102N
Invasion reduced by >50% at 5 µM NBX: > 50%
